In this experiment the target is RhoA (human) (UniProt P61586).
Sequence of UniProt P61586 (P61586 whole entry): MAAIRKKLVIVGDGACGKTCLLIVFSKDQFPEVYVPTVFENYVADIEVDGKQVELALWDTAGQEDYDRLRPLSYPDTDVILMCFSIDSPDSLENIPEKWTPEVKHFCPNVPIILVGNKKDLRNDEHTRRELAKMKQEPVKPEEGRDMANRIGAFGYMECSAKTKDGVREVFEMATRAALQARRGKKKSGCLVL

With “VopX (amino acids 26-252), purified (domain or fragment)”, the average exchange rate of RhoA in the presence of VopX (in vitro RhoGEF exchange assay with N-MAR-GTP; 1.5 µM GTPase, 0.75 µM N-MAR-GTP, 0.5 µM VopX) (µmol N-MAR-GTP/μmol GTPase/s) is 167.

Values taken from article PMC11898728.
